Drawing on article PMC4072727, “Selection and Characterization of a DNA Aptamer That Can Discriminate between cJun/cJun and cJun/cFos”, this text covers binding result and Kd for 8 molecules.

The target of series [1] is T1, cJun (cJun/cJun homodimer) (UniProt P05412 1-331, C269S). The series can be described thus: EMSA; 0.4-6.5 nM; low or sub-nanomolar; EMSA: 100 mM KCl, 4 mM MgCl2, 20 mM Tris pH 7.9, 20 mM HEPES pH 7.9, 10% glycerol, 0.1 mM DTT, 60 ug/ml BSA, 0.06% NP-40, 50 ng poly(dI-dC), on ice; 50 pM 32P-D. The settings on record: protein: recombinant; chain copies: 2; label: 5'-FAM or 32P.

Series [2] concerns the target T2, cJun (cJun/cJun homodimer);cFos (in cJun/cFos heterodimer) (;, UniProt P05412;P01100 1-331;1-380, C269S|C154S). The series can be described thus: EMSA; 0.4-6.5 nM protein; EMSA: 100 mM KCl, 4 mM MgCl2, 20 mM Tris pH 7.9, 20 mM HEPES pH 7.9, 10% glycerol, 0.1 mM DTT, 60 ug/ml BSA, 0.06% NP-40, 50 ng poly(dI-dC), on ice; 50 pM 32P-D. The settings on record: protein: recombinant;recombinant; tags: ;6His; copies: 1;1; label: 5'-FAM or 32P.

The target of series [3] is T1, cJun (cJun/cJun homodimer). The series can be described thus: competition; vs Cy5-labeled AP-1 DNA; EMSA: 100 mM KCl, 4 mM MgCl2, 20 mM Tris pH 7.9, 20 mM HEPES pH 7.9, 10% glycerol, 0.1 mM DTT, 60 ug/ml BSA, 0.06% NP-40, 50 ng poly(dI-dC), on ice; 50 pM 32P-D. The settings on record: protein: recombinant; chain copies: 2; hairpin. Background: Mobility shift assays separate free from complexed probe on a gel.

Series [4] deals with T2, cJun (cJun/cJun homodimer);cFos (in …). The series can be described thus: EMSA; higher affinity than cJun/cJun; EMSA: 100 mM KCl, 4 mM MgCl2, 20 mM Tris pH 7.9, 20 mM HEPES pH 7.9, 10% glycerol, 0.1 mM DTT, 60 ug/ml BSA, 0.06% NP-40, 50 ng poly(dI-dC), on ice; 50 pM 32P-D. Particulars: protein: recombinant;recombinant; tags: ;6His; copies: 1;1; label: 32P or 5'-Cy5; blunt.

Series [5] addresses T1, cJun (cJun/cJun homodimer). The series can be described thus: EMSA; EMSA: 100 mM KCl, 4 mM MgCl2, 20 mM Tris pH 7.9, 20 mM HEPES pH 7.9, 10% glycerol, 0.1 mM DTT, 60 ug/ml BSA, 0.06% NP-40, 50 ng poly(dI-dC), on ice; 50 pM 32P-D. Particulars: protein: recombinant, chain copies: 2.
Series [6] deals with T1, cJun (cJun/cJun homodimer). The series can be described thus: DNase I footprinting; broad protection; EMSA: 100 mM KCl, 4 mM MgCl2, 20 mM Tris pH 7.9, 20 mM HEPES pH 7.9, 10% glycerol, 0.1 mM DTT, 60 ug/ml BSA, 0.06% NP-40, 50 ng poly(dI-dC), on ice; 50 pM 32P-D. Particulars: protein: recombinant; chain copies: 2; label: 32P; three stem-loops, nt 13-68.

B1: aptamer-16 (structured_DNA)
DNA: GGGAGATCACTTACGGCACCCGGAGGGTCGTTACCCACTGTTTGTTGGTATAAAGCCTGGCGACAGGGCTCGGAACC
In the case of B1, the binding result in series [1] is given as “binds”; in series [2], “no binding”.
As for GTCCAAATCTCAGAAGAGACACACTCTTCTGAGATTTGGAC (structured_DNA) [mutant AP-1 decoy (hairpin)], the binding result in series [3] was “no binding”.

B2: AP-1 DNA (dsDNA)
DNA 1: AGGTCGTGACTCAGCGG
DNA 2: CCGCTGAGTCACGACCT
As for B2, in series [4], the binding result is listed as “binds”. The equilibrium dissociation constant (Kd) – broadly, the equilibrium constant for the complex coming apart – in series [5] (label: 32P or 5'-Cy5, blunt) was around 15 nM.
With GTCCATGACTCAGAAGAGACACACTCTTCTGAGTCATGGAC (structured_DNA) [AP-1 DNA decoy (hairpin)], the binding result in series [3] is “binds”.

B3: aptamer-19(12-74) (structured_DNA)
DNA: TACGGCACCGTATAGTCGTACATGAACGAGTGTGAGTGTTAAGCCTTTGGCGACAGGGCTCGG
As for B3, the Kd in series [5] (label: 32P, three stem-loops, nt 13-68) was 0.5 nM.

B4: aptamer-1 (structured_DNA)
DNA: GGGAGATCACTTACGGCACCAGTCGTCGTTACTGCATTGCTCTATGGAGTATAAGCCCTGCGACAGGGCTCGGAACC
In the case of B4, the binding result in series [1] is on record as “binds”; in series [2], “no binding”.

B5: aptamer-27 (structured_DNA)
DNA: GGGAGATCACTTACGGCACCAACGTCTCGTTGGTCGTTCCAGCGTTCTAGATGGATTCAGGCGACAGGGCTCGGAACC
Consider B5, for which the values for the binding result in series [1] and in series [2] were “binds” and “no binding”, respectively.

B6: aptamer-19 (structured_DNA)
DNA: GGGAGATCACTTACGGCACCGTATAGTCGTACATGAACGAGTGTGAGTGTTAAGCCTTTGGCGACAGGGCTCGGAACC
With B6, the binding result in series [6] is reported as “binds”.
